{
  "source": "patent US20140371148A1",
  "biological_target": "ACE from rabbit lung (rabbit) (UniProt P12822)",
  "sequence (P12822 34-1310 limits assumed, form in doubt)": "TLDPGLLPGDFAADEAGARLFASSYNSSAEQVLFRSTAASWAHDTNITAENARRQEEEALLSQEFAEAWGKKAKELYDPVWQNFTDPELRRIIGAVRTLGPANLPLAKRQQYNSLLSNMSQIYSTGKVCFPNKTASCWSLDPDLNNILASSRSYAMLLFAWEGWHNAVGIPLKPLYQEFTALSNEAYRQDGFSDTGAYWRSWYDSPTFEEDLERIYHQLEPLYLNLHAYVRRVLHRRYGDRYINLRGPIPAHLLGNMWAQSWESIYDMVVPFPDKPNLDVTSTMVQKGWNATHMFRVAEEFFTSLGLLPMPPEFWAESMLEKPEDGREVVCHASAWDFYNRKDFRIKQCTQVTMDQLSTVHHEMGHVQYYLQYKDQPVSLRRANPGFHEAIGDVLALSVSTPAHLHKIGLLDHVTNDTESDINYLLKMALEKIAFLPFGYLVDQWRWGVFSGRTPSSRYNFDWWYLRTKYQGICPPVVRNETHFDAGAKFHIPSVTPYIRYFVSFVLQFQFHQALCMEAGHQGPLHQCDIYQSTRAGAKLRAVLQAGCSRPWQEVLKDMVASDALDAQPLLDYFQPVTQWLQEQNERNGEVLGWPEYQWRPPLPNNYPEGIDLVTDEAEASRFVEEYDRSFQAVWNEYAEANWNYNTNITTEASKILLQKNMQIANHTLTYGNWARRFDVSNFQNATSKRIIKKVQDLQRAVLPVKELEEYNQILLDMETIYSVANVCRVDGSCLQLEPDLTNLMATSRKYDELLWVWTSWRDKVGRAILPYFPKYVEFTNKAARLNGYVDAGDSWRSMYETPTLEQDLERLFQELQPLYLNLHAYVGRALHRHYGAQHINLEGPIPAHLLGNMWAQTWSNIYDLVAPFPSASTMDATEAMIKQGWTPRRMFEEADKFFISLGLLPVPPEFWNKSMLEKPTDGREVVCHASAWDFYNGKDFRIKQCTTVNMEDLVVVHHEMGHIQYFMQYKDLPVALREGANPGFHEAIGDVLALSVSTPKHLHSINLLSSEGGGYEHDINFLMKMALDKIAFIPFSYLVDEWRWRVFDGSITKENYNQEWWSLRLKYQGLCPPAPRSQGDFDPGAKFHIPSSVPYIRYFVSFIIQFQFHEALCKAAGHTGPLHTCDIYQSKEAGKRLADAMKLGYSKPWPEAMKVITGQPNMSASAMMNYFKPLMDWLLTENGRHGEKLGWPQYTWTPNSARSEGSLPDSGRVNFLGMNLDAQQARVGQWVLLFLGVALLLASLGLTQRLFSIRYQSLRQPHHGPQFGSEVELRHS",
  "assay": "cell-based or functional assay",
  "data": [
    {"substance": "GLP-1-(7-37)-γ-Abu-N^ε2Lys-(Pyr)-WAP-OH (peptide)", "values": [
      {"measurement": "ACE inhibition IC50", "value": "> 10", "unit": "µM"}
    ]}
  ]
}
